The target of this assay is HAB1 (PP2C used in the in vitro phosphatase activity assays) (UniProt Q9CAJ0). Put plainly: cell-based or functional assay.
Chain of HAB1 (PP2C used in the in vitro phosphatase activity assays) (Q9CAJ0 23-511 limits assumed): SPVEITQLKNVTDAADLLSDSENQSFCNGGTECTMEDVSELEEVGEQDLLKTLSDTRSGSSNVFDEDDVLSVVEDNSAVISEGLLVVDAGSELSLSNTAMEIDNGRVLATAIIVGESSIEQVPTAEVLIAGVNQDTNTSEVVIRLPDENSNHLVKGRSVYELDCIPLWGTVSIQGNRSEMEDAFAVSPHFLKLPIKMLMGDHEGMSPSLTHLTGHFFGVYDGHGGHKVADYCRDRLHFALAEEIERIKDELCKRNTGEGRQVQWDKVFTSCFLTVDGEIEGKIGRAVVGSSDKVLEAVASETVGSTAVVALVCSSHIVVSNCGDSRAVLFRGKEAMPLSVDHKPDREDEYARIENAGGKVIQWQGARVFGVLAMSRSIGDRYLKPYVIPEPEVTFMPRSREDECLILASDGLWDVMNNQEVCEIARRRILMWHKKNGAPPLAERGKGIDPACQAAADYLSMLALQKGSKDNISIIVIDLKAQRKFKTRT

For the substance “PYR1 K59R, Y120H, M158I triple mutant (recombinant protein) (from UniProt O49686 1-191) (receptor)”, the in vitro receptor assay (PP2C activity, 2:1 receptor to phosphatase); IC50 of fenhexamid was found to be 400 nM.

The values above are taken from patent publication US20110271408A1.
